# Assay results: IntAct's records for PubMed 23376919
# B1: Interleukin-1 receptor-associated kinase 3 (Mus musculus), Q8K4B2 (parent)
# chain: MAGRCGARGALSPQLLLFDLPPALLGELCGILDSCDGPLGWRGLAERLSNSWLDVRHIEKYVNQGKSGTRELLWSWAQKNKTIGDLLEVLQDMGHQRAIHLIINYGVSWTPSVQTHHELPFPSFPPEVKHACRENDPGPLEPANVTVDNVLVPEHNEKGTLQKTPISFQSILEGTKHFHKDFLIGEGEIFEVYRVDIRNQAYAVKLFKQEKKMQLKKHWKRFLSELEVLLLFRHPHILELAAYFTETEKLCLVYPYMSNGTLFDRLQCTNGTTPLSWHVRISVLIGIAKAIQYLHNTQPCAVICGNVSSANILLDDQLQPKLTDFAAAHFRPNLEQQSSTINMTGGGRKHLWYMPEEYIRQGRLSVKTDVYSFGIVIMEVLTGCKVVLDDPKHVQLRDLLMELMEKRGLDSCLSFLDRKIPPCPRNFSAKLFSLAGRCVATKAKLRPTMDEVLSSLESTQPSLYFAEDPPTSLKSFRCPSPLFLDNVPSIPVEDDENQNNHSVPPKEVLGTDRVTQKTPFECSQSEVTFLGLDRNRGNRGSEADCNVPSSSHEECWSPELVAPSQDLSPTVISLGSSWEVPGHSYGSKPMEKRCSSGLFCSEHEQSKKQ
# partner: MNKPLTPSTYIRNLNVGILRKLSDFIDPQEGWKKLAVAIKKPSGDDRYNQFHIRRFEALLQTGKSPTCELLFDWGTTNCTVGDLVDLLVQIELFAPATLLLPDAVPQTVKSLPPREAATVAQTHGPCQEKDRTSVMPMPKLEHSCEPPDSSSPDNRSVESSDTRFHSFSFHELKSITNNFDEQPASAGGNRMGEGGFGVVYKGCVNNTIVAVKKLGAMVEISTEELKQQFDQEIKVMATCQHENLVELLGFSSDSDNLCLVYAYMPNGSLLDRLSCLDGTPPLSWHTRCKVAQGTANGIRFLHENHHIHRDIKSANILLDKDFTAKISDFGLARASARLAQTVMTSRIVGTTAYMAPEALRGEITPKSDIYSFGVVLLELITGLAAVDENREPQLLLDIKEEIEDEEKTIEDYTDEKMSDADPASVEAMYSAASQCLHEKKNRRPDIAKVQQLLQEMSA
# B2: Interleukin-1 receptor-associated kinase 4 (Mus musculus), Q8R4K2 (parent)
# chain: B1 partner
# partner: B1 chain
# B3: Interleukin-1 receptor-associated kinase 3 (Mus musculus), Q8K4B2 (parent)
# chain: B1 chain
# partner: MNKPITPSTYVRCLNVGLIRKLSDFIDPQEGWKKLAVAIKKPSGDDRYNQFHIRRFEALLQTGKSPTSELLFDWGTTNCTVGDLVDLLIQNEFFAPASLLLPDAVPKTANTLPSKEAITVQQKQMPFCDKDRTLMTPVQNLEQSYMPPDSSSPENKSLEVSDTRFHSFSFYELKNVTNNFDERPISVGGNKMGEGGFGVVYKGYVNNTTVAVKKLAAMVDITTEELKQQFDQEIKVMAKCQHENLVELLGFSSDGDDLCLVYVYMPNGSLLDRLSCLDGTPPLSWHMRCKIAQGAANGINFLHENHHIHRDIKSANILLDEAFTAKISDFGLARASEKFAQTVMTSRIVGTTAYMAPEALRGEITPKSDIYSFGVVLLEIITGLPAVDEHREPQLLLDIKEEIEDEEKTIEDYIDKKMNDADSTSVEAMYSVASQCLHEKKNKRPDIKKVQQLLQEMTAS
# Variants of: B1
# Details: with irak4_mouse Irak4, Q8R4K2
row,effect of a mutation on the interaction,Variant
1,disrupting interaction,W74A

# Variants of: B1
# Details: with irak4_mouse Irak4, Q8R4K2
# Remark: another data set of the same source
row,effect of a mutation on the interaction,Variant
1,disrupting interaction,E71A;Q78G

# Variants of: B1
# Details: with irak4_mouse Irak4, Q8R4K2
# Remark: another data set of the same source
row,effect of a mutation on the interaction,Variant
1,decreasing interaction,E71A

# Variants of: B1
# Details: with irak4_mouse Irak4, Q8R4K2
# Remark: another data set of the same source
row,effect of a mutation on the interaction,Variant
1,decreasing interaction,Q78G

# Variants of: B2
# Details: with irak3_mouse Irak3, Q8K4B2
row,effect of a mutation on the interaction,Variant
1,decreasing interaction,MNKPLTPSTYIRNLNVGILRKLSDDIDPQEGWKKLAVAIKKPSGDDRYNQFHIRRFEALLQTGKSPTCELLFDWGTTNCTVGDLVDLLVQIELFAPATLLLPDAVPQTVKSLPPREAATVAQTHGPCQEKDRTSVMPMPKLEHSCEPPDSSSPDNRSVESSDTRFHSFSFHELKSITNNFDEQPASAGGNRMGEGGFGVVYKGCVNNTIVAVKKLGAMVEISTEELKQQFDQEIKVMATCQHENLVELLGFSSDSDNLCLVYAYMPNGSLLDRLSCLDGTPPLSWHTRCKVAQGTANGIRFLHENHHIHRDIKSANILLDKDFTAKISDFGLARASARLAQTVMTSRIVGTTAYMAPEALRGEITPKSDIYSFGVVLLELITGLAAVDENREPQLLLDIKEEIEDEEKTIEDYTDEKMSDADPASVEAMYSAASQCLHEKKNRRPDIAKVQQLLQEMSA [F25D]

# Variants of: B3
# Details: with irak4_human IRAK4, Q9NWZ3
row,effect of a mutation on the interaction,Variant
1,decreasing interaction,E71A

# Variants of: B3
# Details: with irak4_human IRAK4, Q9NWZ3
# Remark: another data set of the same source
row,effect of a mutation on the interaction,Variant
1,decreasing interaction,E71A;Q78G

# Variants of: B3
# Details: with irak4_human IRAK4, Q9NWZ3
# Remark: another data set of the same source
row,effect of a mutation on the interaction,Variant
1,decreasing interaction,Q78G

# Variants of: B3
# Details: with irak4_human IRAK4, Q9NWZ3
# Remark: another data set of the same source
row,effect of a mutation on the interaction,Variant
1,disrupting interaction,W74A
